Data from US20240342320A1 (GUANGZHOU GENBIONOVA MEDICAL TECHNOLOGY, published 2024).
Positions of bridges follow the written chain, without caps; N, C: chain ends. Non-standard residues stand in square brackets, D forms with d. Primed or numbered codes have the meaning given here. No end group written: not given here. PEG4′ = not defined here; NOTA′ = NOTA chelator

B1: CRWYDEAAC (peptide)
peptide: CRWYDEAAC
modifications: disulfide 1-9 (inferred)
notes: also called P7
B2: CRWYDENAC (peptide)
peptide: CRWYDENAC
modifications: disulfide 1-9 (inferred)
notes: also called P1
B3: RWYDEN (peptide)
peptide: RWYDEN
notes: Straight-chain peptide; also called P9
B4: CAWYDENAC (peptide)
peptide: CAWYDENAC
modifications: disulfide 1-9 (inferred)
notes: also called P2
B5: RWYDANA (peptide)
peptide: RWYDANA
notes: Straight-chain peptide; also called P10
B6: CRWYAENAC (peptide)
peptide: CRWYAENAC
modifications: disulfide 1-9 (inferred)
notes: also called P5
B7: RWYDEA (peptide)
peptide: RWYDEA
notes: Straight-chain peptide; also called P12
B8: RWYAEN (peptide)
peptide: RWYAEN
notes: Straight-chain peptide; also called P16
B9: CRAYDENAC (peptide)
peptide: CRAYDENAC
modifications: disulfide 1-9 (inferred)
notes: also called P3
B10: RWYDAN (peptide)
peptide: RWYDAN
notes: Straight-chain peptide; also called P11
B11: RWYD (peptide)
peptide: RWYD
notes: also called P15; linear quaternary polypeptide RWYD
B12: CRWYDANAC (peptide)
peptide: CRWYDANAC
modifications: disulfide 1-9 (inferred)
notes: also called P6
B13: RWYDE (peptide)
peptide: RWYDE
notes: Straight-chain peptide; also called P13
B14: RWYDA (peptide)
peptide: RWYDA
notes: Straight-chain peptide; also called P14
B15: RWYD-PEG4-K-NOTA (peptide)
peptide: RWYD[PEG4′]K-{NOTA′}
notes: The unlabelled form was used in MST; also called RD
B16: (RWYD-PEG4)2-K-K-NOTA (peptide)
peptide: RWYD
modifications: not fully specified; each RWYD carries PEG4 at its C-terminus; two RWYD-PEG4 units are joined through lysine, followed by K-NOTA: (RWYD-PEG4)2-K-K-NOTA
notes: also called RD2; RD2 dimer

molecular target: Integrin α6β4 protein; assay: MST, dye-labelled integrin α6β4, mean of 3 runs
Description: (§1) The affinity between these 18 polypeptides and integrin α6β4 was detected by microscale thermophoresis (MST) method as follows: [0053] 1) Integrin α6β4 protein was dissolved to 800 nM, and polypeptide was dissolved to 100 μM. [0054] 2) A RED-tris-NTA second-generation dye was diluted to 100 nM by using the MO series RED-tris-NTA protein labeling kit. [0055] 3) 100 μl α6β4 protein was mixed with 50 μl dye and incubated at room temperature for 30 min, so that the α6β4 protein binds to the dye. [0056] 4) 10 μl polypeptide was transferred into a PCR tube, and was diluted with PBST (containing 0.05% Tween 20) at a ratio of 1:1 to 16 gradients of concentrations. [0057] 5) 3 μl protein/dye mixture was transferred into a PCR tube, 3 μl of 16 different concentrations of polypeptides was respectively added and mixed well. [0058] 6) The mixture was absorbed by capillary and loaded on machine (instrument model Monolith NT.115) to assay, parameters were set as 80% LED/excitation power and medium MST power. [0059] 7) MO. Affinity Analysis software was used to calculate the equilibrium dissociation constant KD between α6β4 protein and polypeptide by KD fitting mode.

Kd | Binder
0.62 µM | B1
6.97 µM | B2
10.5 µM | B3
6.58 µM | B4
30.7 µM | B5
0.41 µM | B6
3.16 µM | B7
7.71 µM | B8
13.3 µM | B9
31.2 µM | B10
0.02 µM | B11
4.34 µM | B12
64.4 µM | B13
5.06 µM | B14

molecular target: Integrin α6β4 protein; assay: MST, dye-labelled integrin α6β4, run 1
Description: as §1

Kd | Binder
0.25 µM | B1
8.59 µM | B2
9.69 µM | B3
4.03 µM | B4
62.1 µM | B5
0.36 µM | B6
5.26 µM | B7
7.31 µM | B8
14.4 µM | B9
34.6 µM | B10
0.02 µM | B11
1.21 µM | B12
14.7 µM | B13
6.28 µM | B14

molecular target: Integrin α6β4 protein; assay: MST, dye-labelled integrin α6β4, run 3
Description: as §1

Kd | Binder
1.37 µM | B1
5.81 µM | B2
13.1 µM | B3
3.58 µM | B4
12.4 µM | B5
0.65 µM | B6
1.74 µM | B7
9.74 µM | B8
13.8 µM | B9
35.7 µM | B10
0.026 µM | B11
3.83 µM | B12
99.6 µM | B13
4.22 µM | B14

molecular target: Integrin α6β4 protein; assay: MST, dye-labelled integrin α6β4, run 2
Description: as §1

Kd | Binder
0.25 µM | B1
6.52 µM | B2
8.73 µM | B3
12.1 µM | B4
17.5 µM | B5
0.22 µM | B6
2.49 µM | B7
6.08 µM | B8
11.8 µM | B9
23.2 µM | B10
0.018 µM | B11
7.99 µM | B12
78.8 µM | B13
4.69 µM | B14

molecular target: Integrin α6β4 protein; assay: MST, dye-labelled integrin α6β4; unrounded mean of the table's 0.02 µM
Description: as §1

Kd | Binder
0.0218 µM | B11

molecular target: Integrin α6β1; assay: MST (FIG. 2B), integrin α6β1
Sequence (chain, as listed by the source, chain 1 of 2): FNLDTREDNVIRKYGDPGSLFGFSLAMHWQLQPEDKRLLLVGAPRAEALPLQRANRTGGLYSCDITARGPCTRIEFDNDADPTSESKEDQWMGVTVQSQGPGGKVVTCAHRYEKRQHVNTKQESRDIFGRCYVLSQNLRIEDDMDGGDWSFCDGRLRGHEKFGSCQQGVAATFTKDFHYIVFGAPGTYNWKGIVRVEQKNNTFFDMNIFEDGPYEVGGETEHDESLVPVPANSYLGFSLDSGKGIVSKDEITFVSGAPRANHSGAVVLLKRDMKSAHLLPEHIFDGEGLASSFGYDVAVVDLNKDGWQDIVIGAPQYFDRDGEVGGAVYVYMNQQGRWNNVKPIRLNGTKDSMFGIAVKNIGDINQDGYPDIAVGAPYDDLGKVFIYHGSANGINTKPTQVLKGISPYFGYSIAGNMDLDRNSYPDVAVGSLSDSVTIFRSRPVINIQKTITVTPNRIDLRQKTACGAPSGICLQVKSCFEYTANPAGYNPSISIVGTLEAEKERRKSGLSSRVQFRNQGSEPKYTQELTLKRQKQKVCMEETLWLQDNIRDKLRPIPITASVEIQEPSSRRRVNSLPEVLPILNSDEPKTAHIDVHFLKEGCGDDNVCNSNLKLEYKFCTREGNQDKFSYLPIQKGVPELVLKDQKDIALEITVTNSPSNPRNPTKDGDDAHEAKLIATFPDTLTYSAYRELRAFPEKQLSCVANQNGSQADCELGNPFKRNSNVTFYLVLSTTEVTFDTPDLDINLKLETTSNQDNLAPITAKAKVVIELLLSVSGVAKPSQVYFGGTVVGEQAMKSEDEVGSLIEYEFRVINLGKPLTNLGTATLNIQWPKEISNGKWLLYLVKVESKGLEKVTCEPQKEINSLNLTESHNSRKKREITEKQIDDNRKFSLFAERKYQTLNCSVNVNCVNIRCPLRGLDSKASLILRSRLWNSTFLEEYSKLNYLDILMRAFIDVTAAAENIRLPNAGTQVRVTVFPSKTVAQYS
Sequence (chain, as listed by the source, chain 2 of 2): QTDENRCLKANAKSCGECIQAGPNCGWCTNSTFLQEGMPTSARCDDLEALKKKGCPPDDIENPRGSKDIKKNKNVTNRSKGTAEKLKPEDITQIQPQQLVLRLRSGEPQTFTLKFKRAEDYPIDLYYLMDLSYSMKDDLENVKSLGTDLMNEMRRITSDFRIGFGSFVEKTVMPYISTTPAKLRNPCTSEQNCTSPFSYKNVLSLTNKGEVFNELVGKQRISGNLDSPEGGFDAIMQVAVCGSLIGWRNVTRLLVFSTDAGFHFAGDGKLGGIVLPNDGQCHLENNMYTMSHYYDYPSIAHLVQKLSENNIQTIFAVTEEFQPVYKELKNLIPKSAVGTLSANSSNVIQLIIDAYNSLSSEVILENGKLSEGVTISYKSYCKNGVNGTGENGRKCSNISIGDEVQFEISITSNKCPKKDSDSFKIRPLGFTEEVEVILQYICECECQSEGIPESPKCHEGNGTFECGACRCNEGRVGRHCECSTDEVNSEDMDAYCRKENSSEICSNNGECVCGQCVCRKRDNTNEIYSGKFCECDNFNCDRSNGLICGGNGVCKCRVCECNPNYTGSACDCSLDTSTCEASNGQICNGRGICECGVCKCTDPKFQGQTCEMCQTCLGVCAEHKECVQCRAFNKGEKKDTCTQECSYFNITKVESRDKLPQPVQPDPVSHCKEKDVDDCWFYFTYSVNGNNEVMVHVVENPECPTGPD

Kd | Binder
0.0531 µM | B11

molecular target: Integrin α6β4 protein; assay: MST, integrin α6β4

Kd | fold increase of affinity against RWYD-PEG4-K-NOTA | Binder
0.642 µM | – | B15
0.0648 µM | ~10 fold | B16

molecular target: Integrin α6β4 protein; assay: MST, ratio of mean KD against …
Description: as §1

Affinity relative to RWY | Binder
11.2 fold | B1
1 fold | B2
0.66 fold | B3
1.06 fold | B4
0.23 fold | B5
17 fold | B6
2.2 fold | B7
0.9 fold | B8
0.52 fold | B9
0.22 fold | B10
327 fold | B11
1.61 fold | B12
0.11 fold | B13
1.38 fold | B14
